Reference: article PMC4148193, “Chromatin Insulator Factors Involved in Long-Range DNA Interactions and Their Role in the Folding of the Drosophila Genome” (PLoS Genetics, 2014)

What was measured:
CP190 = target: T1, CP190 (Drosophila, UniProt Q24478 1-1096); assay: fluorescence anisotropy; Hill n=2±0.3; 20 uM ZnSO4; FA/FCS: 30 mM Tris/HCl pH 7.5, 100 mM NaCl, 20 uM ZnSO4, 5 mM mercaptoethanol, 0.01 mg/ml BSA, 0.004% Tween20, 2.5 nM DNA; EMSA: 150 mM NaCl, 30 mM Tris/HCl pH; settings: protein: recombinant; tags: N-term 6xHis; blunt
T1 sequence: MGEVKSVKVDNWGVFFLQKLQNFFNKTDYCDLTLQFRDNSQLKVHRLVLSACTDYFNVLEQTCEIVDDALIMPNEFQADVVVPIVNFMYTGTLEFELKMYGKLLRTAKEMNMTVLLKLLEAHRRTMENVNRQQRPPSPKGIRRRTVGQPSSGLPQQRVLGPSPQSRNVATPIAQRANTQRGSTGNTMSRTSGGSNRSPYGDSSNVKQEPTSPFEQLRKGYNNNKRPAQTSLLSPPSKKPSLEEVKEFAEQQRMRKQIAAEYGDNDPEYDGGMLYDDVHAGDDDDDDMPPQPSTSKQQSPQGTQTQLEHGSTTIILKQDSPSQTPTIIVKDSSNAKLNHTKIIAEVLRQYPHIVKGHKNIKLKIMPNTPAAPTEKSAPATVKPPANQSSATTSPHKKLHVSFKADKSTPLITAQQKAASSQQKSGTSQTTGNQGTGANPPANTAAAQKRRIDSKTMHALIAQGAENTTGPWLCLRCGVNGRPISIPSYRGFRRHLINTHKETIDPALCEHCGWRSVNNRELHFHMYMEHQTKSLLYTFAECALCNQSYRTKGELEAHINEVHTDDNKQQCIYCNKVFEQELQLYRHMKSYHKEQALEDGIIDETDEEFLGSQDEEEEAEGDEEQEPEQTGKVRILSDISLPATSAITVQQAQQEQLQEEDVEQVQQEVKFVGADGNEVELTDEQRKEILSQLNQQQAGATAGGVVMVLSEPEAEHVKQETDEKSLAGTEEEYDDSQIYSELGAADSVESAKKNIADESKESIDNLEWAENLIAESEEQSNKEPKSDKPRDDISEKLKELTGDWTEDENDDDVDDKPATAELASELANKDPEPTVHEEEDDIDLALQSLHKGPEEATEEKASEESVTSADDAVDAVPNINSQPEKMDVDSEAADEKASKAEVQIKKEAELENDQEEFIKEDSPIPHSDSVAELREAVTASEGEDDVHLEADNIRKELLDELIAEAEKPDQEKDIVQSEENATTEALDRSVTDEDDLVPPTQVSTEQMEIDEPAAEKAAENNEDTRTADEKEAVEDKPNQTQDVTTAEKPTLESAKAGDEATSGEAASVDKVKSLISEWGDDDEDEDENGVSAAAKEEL

BEAF32 (BEAF32B);CP190 = target: T2, BEAF32 (BEAF32B);CP190 (Drosophila;Drosophila, UniProt Q94513;Q24478 1-282;1-1096, |); assay: FCS/PIE-FCCS; 400 nM BEAF32, 50 nM CP190; cross-correlation 18±6%, 65±22% of complexes bridged; FA/FCS: 30 mM Tris/HCl pH 7.5, 100 mM NaCl, 20 uM ZnSO4, 5 mM mercaptoethanol, 0.01 mg/ml BSA, 0.004% Tween20, 2.5 nM DNA; EMSA: 150 mM NaCl, 30 mM Tris/HCl pH; settings: protein: recombinant;recombinant; tags: N-term MBP; C-term 6xHis;N-term 6xHis; blunt
T2 sequence 1: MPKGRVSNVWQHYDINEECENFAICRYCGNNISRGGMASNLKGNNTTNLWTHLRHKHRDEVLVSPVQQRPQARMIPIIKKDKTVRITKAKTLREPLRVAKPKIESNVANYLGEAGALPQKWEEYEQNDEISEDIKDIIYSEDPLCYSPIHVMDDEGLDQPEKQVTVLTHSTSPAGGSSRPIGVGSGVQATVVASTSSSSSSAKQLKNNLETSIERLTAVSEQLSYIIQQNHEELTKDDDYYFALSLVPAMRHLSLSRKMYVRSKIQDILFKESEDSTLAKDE
T2 sequence 2: T1 sequence

[1] = target: T3, BEAF32 (BEAF32B);Chromator (Drosophila;Drosophila, UniProt Q94513;Q86BS3 1-282;1-926, |); assay: FCS/PIE-FCCS; 800 nM BEAF32, 100 nM Chromator; cross-correlation 13±4%, 47±14% of complexes bridged; FA/FCS: 30 mM Tris/HCl pH 7.5, 100 mM NaCl, 20 uM ZnSO4, 5 mM mercaptoethanol, 0.01 mg/ml BSA, 0.004% Tween20, 2.5 nM DNA; EMSA: 150 mM NaCl, 30 mM Tris/HCl pH; settings: protein: recombinant;recombinant; tags: N-term MBP; C-term 6xHis;N-term 6xHis; blunt
T3 sequence 1: T2 sequence 1
T3 sequence 2: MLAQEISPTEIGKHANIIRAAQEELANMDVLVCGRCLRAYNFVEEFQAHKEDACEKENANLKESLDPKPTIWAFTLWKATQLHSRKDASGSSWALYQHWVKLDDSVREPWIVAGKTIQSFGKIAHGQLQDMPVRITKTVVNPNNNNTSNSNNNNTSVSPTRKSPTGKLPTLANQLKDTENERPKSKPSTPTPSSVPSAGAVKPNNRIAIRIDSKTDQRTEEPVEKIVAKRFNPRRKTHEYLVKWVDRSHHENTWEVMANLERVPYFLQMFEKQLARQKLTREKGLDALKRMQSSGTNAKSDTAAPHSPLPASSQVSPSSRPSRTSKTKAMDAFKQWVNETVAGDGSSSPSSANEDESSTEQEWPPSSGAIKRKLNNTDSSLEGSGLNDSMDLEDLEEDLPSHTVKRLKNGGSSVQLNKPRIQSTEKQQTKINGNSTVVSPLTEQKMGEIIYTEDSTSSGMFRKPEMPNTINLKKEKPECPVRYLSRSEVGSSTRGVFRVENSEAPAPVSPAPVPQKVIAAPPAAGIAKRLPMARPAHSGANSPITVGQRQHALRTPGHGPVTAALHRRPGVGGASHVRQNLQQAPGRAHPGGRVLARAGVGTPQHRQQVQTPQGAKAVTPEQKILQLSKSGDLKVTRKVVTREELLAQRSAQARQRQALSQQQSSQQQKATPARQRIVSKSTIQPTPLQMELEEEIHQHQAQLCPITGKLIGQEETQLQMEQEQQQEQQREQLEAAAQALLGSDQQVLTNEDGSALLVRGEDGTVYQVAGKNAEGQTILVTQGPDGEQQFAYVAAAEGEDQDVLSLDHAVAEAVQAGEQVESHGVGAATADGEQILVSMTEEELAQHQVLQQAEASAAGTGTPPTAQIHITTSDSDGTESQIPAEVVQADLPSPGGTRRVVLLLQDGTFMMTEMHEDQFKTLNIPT

B1: DNAS (dsDNA)
DNA 1: AGAAGTCAGCGCGATAGCATCGATATTTTCGTGACACGCTTGTCATCCGATAGGTAGT
DNA 2: ACTACCTATCGGATGACAAGCGTGTCACGAAAATATCGATGCTATCGCGCTGACTTCT
- Kd (CP190): 109 ± 5 nM
- binding result (BEAF32 (BEAF32B);CP190): binds
- binding result [1]: binds
